According to publication PMC4847750 (Nature structural & molecular biology, 2015):
Where a chain is given by its changes, count along the chain named. In names and notes the source's numbering stands.

B1: Im7-L18A L19A L37A (mimic of unfolded Im7, Im7U) (natural protein, UniProt Q03708 1-87, looked up)
chain: MELKNSISDYTEAEFVQAAKEIEKENVAATDDVLDVALEHFVKITEHPDGTDLIYYPSDNRDDSPEGIVKEIKEWRAANGKPGFKQG
B2: Im7-L53A I54A (mimic of the Im7 folding intermediate, Im7I) (natural protein, UniProt Q03708 1-87, looked up)
chain: B1 chain with A18L, A19L, A37L, L53A, I54A
B3: Immunity protein 7, wild type (Im7-WT) (natural protein, UniProt Q03708 1-87, looked up)
chain: B1 chain with A18L, A19L, A37L
B4: Spy (WT Spy), ATP-independent periplasmic chaperone (natural protein, Escherichia coli, UniProt P77754 24-161, looked up)
chain: ADTTTAAPADAKPMMHHKGKFGPHQDMMFKDLNLTDAQKQQIREIMKGQRDQMKRPPLEERRAMHDIIASDTFDKVKAEAQIAKMEEQRKANMLAHMETQNKIYNILTPEQKKQFNANFEKRLTERPAAKGKMPATAE

What was measured:
[1] = molecular target: B4; test: ITC
[2] = molecular target: B4; test: stopped-flow fluorescence
[3] = molecular target: B3; test: ITC
[4] = molecular target: B1; test: ITC
[5] = molecular target: B2; test: ITC

Binder: B1
- Kd [1]: 10.4 µM
- koff [2]: 210 s⁻¹
- kon [2]: 1.3e+07 M⁻¹ s⁻¹

Binder: B2
- Kd [1]: 3.5 µM

Binder: B3
- Kd [1]: 20.5 µM

Binder: B4
- stoichiometry N [3]: 1 Spy dimer per Im7
- stoichiometry N [4]: 1 Spy dimer per Im7
- stoichiometry N [5]: 1 Spy dimer per Im7
